Legend:
[1] = target: T1, CMVp495-503/HLA-A*02:01 complex (cytomegalovirus (CMV); human); experiment: flow cytometry, cancer cells pulsed with CMVp495-503 peptide, anti-mouse Fc secondary
T1 construct: whole, on cells; also called CMV peptide-MHC-I complex
Experimental: A negative control group not treated with peptide was added with DMSO. After 3 hours, centrifugation was performed at 1300 rpm for 3 minutes to remove the supernatant containing the peptide not bound to the cells, and the cells were washed with a FACS buffer and centrifuged at 1300 rpm for 3 minutes to remove the supernatant. […] After each sample was washed with 1 ml of a FACS buffer, a F(ab′)₂ antibody that specifically recognizes Alexa647 (red fluorescence)-conjugated mouse Fc was diluted 1:1200 in 100 μl of a FACS buffer, followed by reaction at 4° C. for 30 minutes. The cells were washed with 1 ml of a FACS buffer and then analyzed through flow cytometry.

[2] = target: T2, HLA-A*02:01 expressed on the surface of cancer cells (human); experiment: summary table, column MHC-1 display at 4 C
T2 construct: whole, on cells; also called cell-surface HLA-A*02:01; HLA-A2

[3] = target: T2, HLA-A*02:01 expressed on the surface of …; experiment: flow cytometry, MDA-MB-231 cells (4 °C scheme of FIG. 9a), detection with C1-17

Binder	binding result [1]	other results
H9#1 TCR-like antibody (antibody, mouse IgG2a, kappa, V domains shown) VH: EVQLVQSGAEVKKPGSSVKVSCKASGGTFSSYAISWVRQAPGQGLEWMGGIIPIFGTANYAQKFQGRVTITADESTSTAYMELSSLRSEDTAVYYCARGDLYYYDSSGYPLWYMDYWGQGTLVTVSS VL: ETTLTQSPGTLSLSPGERATLSCRASQSVSSSYLAWYQQKPGQAPRLVIYGASSRATGIPDRFSGSGSGTDFTLTISRLEPEDFAVYYCQDYSTYPAFTFGQGTKLEIRR	binds	–
C1-17 TCR-like antibody (antibody, mouse IgG2a, kappa, V domains shown) VH: EVQLVQSGAEVKKPGSSVKVSCKASGGTFSSYAISWVRQAPGQGLEWMGSIIPIFGVAEYAHKFQGRVTITADESTSTAYMELSSLRSEDTAVYYCARGDLYYYDSSGYPLWYMDYWGQGTLVTVSS VL: ETTLTQSPGTLSLSPGERATLSCRASQSVSSSYLAWYQQKPGQAPRLVIYGASTRPTGIPDRFSGSGSGTDFTLTISRLEPEDFAVYYCQDYSTYPAFTFGQGTKLEIRR	binds	–
H9 TCR-like antibody (antibody, mouse IgG2a, kappa, V domains shown) VH: EVQLVQSGAEVKKPGSSVKVSCKASGGTFSSYAISWVRQAPGQGLEWMGGIIPIFGTANYAQKFQGRVTITADESTSTAYMELSSLRSEDTAVYYCARGDLYYYDSSGYPRYYFDYWGQGTLVTVSS VL: ETTLTQSPGTLSLSPGERATLSCRASQSVSSSYLAWYQQKPGQAPRLVIYGASSRATGIPDRFSGSGSGTDFTLTISRLEPEDFAVYYCQHYSTSPGFTFGQGTKLEIRR	binds	–
inCT99†CMVp480-503 fusion antibody (antibody) heavy: not shown light: SDGVRQCRGDCFDGPLMGSSSNDIQMTQSPSSLSASVGDRVTITCKSSQSLLNSRDGKNYLAWYQQKPGKAPKLLIYDASNLETGVPSRFSGSGSGTDFTFTISSLQPEDIATYFCQQYWYWMYTFGGGTKVEIKRTVAAPSVFIFPPSDEQLKSGTASVVCLLNNFYPREAKVQWKVDNALQSGNSQESVTEQDSKDSTYSLSSTLTLSKADYEKHKVYACEVTHQGLSSPVTKSFNRGEC	–	binding result [2]: binds
inCT99†CMVp480-510 fusion antibody (antibody) heavy: not shown light: SDGVRQCRGDCFDGPLMGSSSNDIQMTQSPSSLSASVGDRVTITCKSSQSLLNSRDGKNYLAWYQQKPGKAPKLLIYDASNLETGVPSRFSGSGSGTDFTFTISSLQPEDIATYFCQQYWYWMYTFGGGTKVEIKRTVAAPSVFIFPPSDEQLKSGTASVVCLLNNFYPREAKVQWKVDNALQSGNSQESVTEQDSKDSTYSLSSTLTLSKADYEKHKVYACEVTHQGLSSPVTKSFNRGEC	–	binding result [3]: no binding

Source: patent publication US20230076637A1 (AJOU UNIVERSITY INDUSTRY ACADEMIC COOPERATION FOUNDATION, published 2023)
